Biological target: epidermal growth factor receptor (EGFR) (Homo sapiens (Human), UniProt P00533 25-645, limits assumed)
Assay: potency 1 binding assay (ELISA); RSM sample #15 (10 mg/ml antibody, 55 mM Na-acetate, pH 6.0, 150 mM NaCl) after storage at 60 C for 1 day, relative to control
Protocol: (11) Potency 1 (Binding assay): ELISA reader (Spectra Max 190, Molecular Devices) was used for potency 1 analysis.
The prepared samples were subjected to thermal tests, under the storage condition of: (i) 37° C. for two weeks; or (ii) 60° C. for one day.

B1: anti-EGFR antibody GC1118A (antibody, V domains shown)
VH: EVQLVESGGGVVQPGGSLRLSCAASGFTFSDYDMSWIRQAPGKGLEWVSGILGGSERSYYRDSVKGRFTISRDNSRKTLYLQMNSLRAEDTAVYYCARHGSPGYTLYAWDYWGQGTTVTVSS
VL: DIVMTQTPLSLPVTPGEPASISCRSNQDLTHSNGNTYLEWYLQKPGQSPRLLIYKVSNRFSGVPDRFSGSGAGTDFTLRISRVEAEDVGVYYCMQGTHWPWTFGQGTKVDIKR
notes: These may hold only the part of the antibody that was crystallised
  EC50% as compared to a control group: 114 to 121%
